Results on two molecules are retold here after US20230391826A1 (SANFORD BURNHAM PREBYS MEDICAL DISCOVERY INSTITUTE, published 2023).

Where two headings read alike, the source gives them in different places. Where no end group is shown, it is not given here.

Data set [1] has as its target T1, EphA2 ligand binding domain (EphA2 LBD), residues 28-200 (UniProt P29317 28-200).
T1 construct: range 28-200; Expressed in E. coli; also called soluble EphA2 LBD; soluble monomeric EphA2 LBD
In words: ITC, EphA2 LBD (200-250 µM) titrated into 10-12.5 µM peptide; single titration shown. On the technique in general: ITC needs no label: the signal is the heat of the interaction.

Data set [2] concerns the target T2, EphA2 extracellular domain fused to the Fc portion of an antibody (EphA2-Fc).
T2 construct: extracellular domain; Immobilized on the ELISA wells; also called immobilized EphA2
In words: ELISA, inhibition of ephrinA5-AP binding to immobilized EphA2-Fc; representative experiment, triplicates. In general terms: In an ELISA, binding on a coated surface is turned into a signal by an enzyme label.

The target in data set [3] is T2, EphA2 extracellular domain fused to the …. In words: ELISA, inhibition of ephrinA5-AP binding to immobilized EphA2-Fc.
For data set [4] the target is unchanged. The description is as above. The source holds these as a separate data set.
Data set [5] concerns the target T1, EphA2 ligand binding domain (EphA2 …). Description: ITC, soluble EphA2 LBD and peptide. As for the experimental part:
(§1) For ITC, all peptides are dissolved in DMSO and both the EphA2 LBD and the peptides are diluted to obtain a final buffer containing 9.5 mM HEPES, pH 7.9, 95 mM NaCl, and 5% DMSO. The experiments are carried out at 296 K (23° C.) using an ITC200 calorimeter (Microcal). Two-microliter aliquots of a peptide solution are injected into the cell containing 205 μL EphA2 LBD. 200-400 μM peptides are titrated into 20-40 μM EphA2 LBD. Experimental data are analyzed using the Origin software package (Microcal). The integrated values for the reaction heats are normalized to the amount of injected peptide after blank subtraction.

The target in data set [6] is T3, EphA2 endogenously expressed on PC3 prostate cancer cells (UniProt P29317 24-976, limits assumed). Description: cell-based or functional assay.
Data set [7] addresses T3, EphA2 endogenously expressed on PC3 …. In words: cell-based or functional assay. The source holds these as a separate data set.
For data set [8], the target named is T1, EphA2 ligand binding domain (EphA2 …). Description: ITC, soluble EphA2 LBD and peptide. The source holds these as a separate data set.
For data set [9] the target is unchanged. In words: ITC, soluble EphA2 LBD and peptide. On the procedure: as §1
This is another data set of the same source.

Data set [10] deals with the molecule itself. In words: quantitative FRET between mTURQ- and EYFP-tagged EphA2 L223R/L254R/V255R in HEK293 cells, no ligand; self-association, monomer-dimer fit.

T3 sequence (P29317 24-976 limits assumed): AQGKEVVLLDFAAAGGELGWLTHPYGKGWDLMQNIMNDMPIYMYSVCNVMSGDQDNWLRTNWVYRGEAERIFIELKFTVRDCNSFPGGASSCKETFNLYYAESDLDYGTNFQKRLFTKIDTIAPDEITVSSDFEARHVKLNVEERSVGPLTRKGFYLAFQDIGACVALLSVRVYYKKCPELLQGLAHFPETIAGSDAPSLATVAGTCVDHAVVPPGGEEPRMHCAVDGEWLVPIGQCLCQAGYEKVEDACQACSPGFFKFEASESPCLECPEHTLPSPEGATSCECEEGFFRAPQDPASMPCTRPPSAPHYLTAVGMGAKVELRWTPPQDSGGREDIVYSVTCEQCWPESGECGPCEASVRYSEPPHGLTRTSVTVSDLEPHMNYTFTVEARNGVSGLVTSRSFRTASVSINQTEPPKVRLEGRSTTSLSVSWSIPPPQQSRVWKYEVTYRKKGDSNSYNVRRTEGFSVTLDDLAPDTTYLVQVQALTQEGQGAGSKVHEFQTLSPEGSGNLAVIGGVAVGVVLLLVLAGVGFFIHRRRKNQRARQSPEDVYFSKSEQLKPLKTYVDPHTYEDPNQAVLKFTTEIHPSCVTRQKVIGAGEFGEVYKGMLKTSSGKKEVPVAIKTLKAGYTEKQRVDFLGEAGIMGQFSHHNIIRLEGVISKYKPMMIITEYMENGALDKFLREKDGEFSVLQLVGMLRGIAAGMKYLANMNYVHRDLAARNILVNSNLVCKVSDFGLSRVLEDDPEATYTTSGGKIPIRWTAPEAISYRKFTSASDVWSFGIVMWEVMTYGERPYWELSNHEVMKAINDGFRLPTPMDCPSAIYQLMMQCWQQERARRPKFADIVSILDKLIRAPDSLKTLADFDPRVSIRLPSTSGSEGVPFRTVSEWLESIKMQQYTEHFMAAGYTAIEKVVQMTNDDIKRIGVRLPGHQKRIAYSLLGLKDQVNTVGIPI
T2 sequence (P29317 whole entry, the tested form may be a part): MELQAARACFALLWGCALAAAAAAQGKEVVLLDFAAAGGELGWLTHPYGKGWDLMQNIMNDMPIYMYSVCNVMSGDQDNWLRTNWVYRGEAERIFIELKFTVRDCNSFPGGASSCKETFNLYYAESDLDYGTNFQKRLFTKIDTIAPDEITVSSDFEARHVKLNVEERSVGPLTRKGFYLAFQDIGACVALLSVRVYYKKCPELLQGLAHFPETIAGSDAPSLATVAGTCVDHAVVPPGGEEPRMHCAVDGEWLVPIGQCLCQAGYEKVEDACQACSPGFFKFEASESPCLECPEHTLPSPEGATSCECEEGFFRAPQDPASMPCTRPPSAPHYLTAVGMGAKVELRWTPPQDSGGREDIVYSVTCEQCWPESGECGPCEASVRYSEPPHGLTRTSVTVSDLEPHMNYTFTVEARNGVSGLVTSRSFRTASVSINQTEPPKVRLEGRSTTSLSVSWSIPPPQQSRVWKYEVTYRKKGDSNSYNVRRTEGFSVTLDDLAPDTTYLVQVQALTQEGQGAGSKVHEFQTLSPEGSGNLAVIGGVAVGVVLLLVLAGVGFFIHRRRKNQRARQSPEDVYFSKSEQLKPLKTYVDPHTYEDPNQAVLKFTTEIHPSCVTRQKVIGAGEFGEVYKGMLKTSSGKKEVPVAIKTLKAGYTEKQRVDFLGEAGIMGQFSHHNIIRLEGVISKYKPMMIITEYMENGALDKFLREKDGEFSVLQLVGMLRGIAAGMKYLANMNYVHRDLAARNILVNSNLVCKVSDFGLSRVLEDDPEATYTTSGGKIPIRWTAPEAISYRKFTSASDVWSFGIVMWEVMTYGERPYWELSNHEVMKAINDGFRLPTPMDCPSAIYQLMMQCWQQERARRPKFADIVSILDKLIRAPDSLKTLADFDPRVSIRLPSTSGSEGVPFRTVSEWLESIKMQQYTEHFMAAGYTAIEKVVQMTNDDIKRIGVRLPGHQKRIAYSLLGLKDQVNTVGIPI
T1 sequence (P29317 other isoform, or with tags, fused parts or gaps limits assumed, form in doubt): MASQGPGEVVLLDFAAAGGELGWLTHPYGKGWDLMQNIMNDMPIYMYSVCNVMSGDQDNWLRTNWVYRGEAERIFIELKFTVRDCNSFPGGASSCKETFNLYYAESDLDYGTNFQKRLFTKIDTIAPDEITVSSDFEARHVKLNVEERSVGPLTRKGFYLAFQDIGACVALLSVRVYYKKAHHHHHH

B1: CGA-WLA-YRPK dimer (N-ter) (peptide)
peptide: CGAWLAYPDSVPYRPK
modifications: also: N-terminally disulfide-linked homodimer, disulfide at 1, other end not in the chain
notes: also called dimer (5); dimeric peptide (5)
The Kd is the constant that tells how readily two partners part at equilibrium. As usually defined, the IC50 is the point on the concentration scale where inhibition reaches its midpoint. High values mean lower potency, low ones higher potency. The molecule B1 came in with a Kd in [1] of 18000 pM. The molecule further showed an IC50 in data set [2] of 790 pM. In data set [3], this molecule returned an IC50 of 650 pM. The IC50 in data set [4] is 660 pM. For the same molecule, in data set [5], the affinity, expressed as Kd, was 21000 pM and the “N (binding stoichiometry)” value came out at 2.2. In data set [6], the “Blig (bias factor)” value was 0.81, the “EC50 PY588” value is 530 pM, the “Emax PY588” value was 0.78 normalized to ephrinA1-Fc and the “IC50 PAKT” value came out at 68 pM. For the same molecule, in data set [7], the “EC50 pAKT inhib” value was 0.09 nM, the “Etop pAKT inhib” value was 1, the “Etop pY588” value was 0.87 normalized to ephrinA1-Fc and the “βlig (bias factor)” value worked out at 0.66. Also, in [8], binding was put at a Kd of 380000 pM and the “N (binding stoichiometry)” value stood at 2.2. Also, in data set [9], the “-TΔS” value was 21.9 kcal/mol, binding was put at a Kd of 21000 pM, the “N (binding stoichiometry)” value came to 2.2 and the ΔG was -10.4 kcal/mol. Further, the ΔH in data set [9] was -32.3 kcal/mol.

B2: L223R/L254R/V255R (receptor)
chain: AQGKEVVLLDFAAAGGELGWLTHPYGKGWDLMQNIMNDMPIYMYSVCNVMSGDQDNWLRTNWVYRGEAERIFIELKFTVRDCNSFPGGASSCKETFNLYYAESDLDYGTNFQKRLFTKIDTIAPDEITVSSDFEARHVKLNVEERSVGPLTRKGFYLAFQDIGACVALLSVRVYYKKCPELLQGLAHFPETIAGSDAPSRATVAGTCVDHAVVPPGGEEPRMHCAVDGEWRRPIGQCLCQAGYEKVEDACQACSPGFFKFEASESPCLECPEHTLPSPEGATSCECEEGFFRAPQDPASMPCTRPPSAPHYLTAVGMGAKVELRWTPPQDSGGREDIVYSVTCEQCWPESGECGPCEASVRYSEPPHGLTRTSVTVSDLEPHMNYTFTVEARNGVSGLVTSRSFRTASVSINQTEPPKVRLEGRSTTSLSVSWSIPPPQQSRVWKYEVTYRKKGDSNSYNVRRTEGFSVTLDDLAPDTTYLVQVQALTQEGQGAGSKVHEFQTLSPEGSGNLAVIGGVAVGVVLLLVLAGVGFFIHRRRKNQRARQSPEDVYFSKSEQLKPLKTYVDPHTYEDPNQAVLKFTTEIHPSCVTRQKVIGAGEFGEVYKGMLKTSSGKKEVPVAIKTLKAGYTEKQRVDFLGEAGIMGQFSHHNIIRLEGVISKYKPMMIITEYMENGALDKFLREKDGEFSVLQLVGMLRGIAAGMKYLANMNYVHRDLAARNILVNSNLVCKVSDFGLSRVLEDDPEATYTTSGGKIPIRWTAPEAISYRKFTSASDVWSFGIVMWEVMTYGERPYWELSNHEVMKAINDGFRLPTPMDCPSAIYQLMMQCWQQERARRPKFADIVSILDKLIRAPDSLKTLADFDPRVSIRLPSTSGSEGVPFRTVSEWLESIKMQQYTEHFMAAGYTAIEKVVQMTNDDIKRIGVRLPGHQKRIAYSLLGLKDQVNTVGIPI
modifications: Carries mTURQ (donor) or EYFP (acceptor) at the C-terminus. The tag is not in the letters.
notes: mutant of m18 used in the FRET experiments; also called EphA2 L223R/L254R/V255R; clustering interface mutant; not shown: C-terminal fluorescent protein (mTURQ or EYFP) and any linker to it
Regarding B2, the binding result in data set [10] is recorded as “binds”.
